One assay addresses T1, FcγRIIa H (human, UniProt P12318 34-217).
T1 construct: extracellular domain; also called FcgRIIa H; FcγRIIa type H
T1 sequence (looked up): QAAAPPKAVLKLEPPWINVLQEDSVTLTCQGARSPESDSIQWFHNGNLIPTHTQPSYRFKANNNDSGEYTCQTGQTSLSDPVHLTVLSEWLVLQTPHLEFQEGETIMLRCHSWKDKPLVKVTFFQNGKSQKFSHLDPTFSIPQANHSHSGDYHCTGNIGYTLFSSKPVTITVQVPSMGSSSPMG
Kind of assay: SPR (Biacore), antibody captured, FcγR analyte; binding relative to GpH7-A5/GpH7-B3/GpL16-k0 = 100.

The next assay concerns the target T2, FcγRIIb (human, UniProt P31994 43-217).
T2 construct: extracellular domain; also called FcgRIIb; 2b
T2 sequence (looked up): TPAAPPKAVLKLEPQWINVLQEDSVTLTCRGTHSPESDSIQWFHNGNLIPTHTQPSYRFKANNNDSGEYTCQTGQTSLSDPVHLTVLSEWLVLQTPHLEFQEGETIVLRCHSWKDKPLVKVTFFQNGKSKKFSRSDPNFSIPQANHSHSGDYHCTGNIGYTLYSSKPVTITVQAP
Described as above.

B1: GpH7-A5/GpH7-B3 variant S239_01G/GpL16-k0 (antibody, human IgG1, kappa)
heavy 1: not shown
heavy 2: not shown
light: DIVMTQSPLSLPVTPGEPASISCQASESLVHSNRNTYLHWYLQKPGQSPQLLIYKVSNRFSGVPDRFSGSGSGTDFTLKISRVEAEDVGVYYCSQNTHVPPTFGQGTKVEIERTVAAPSVFIFPPSDEQLKSGTASVVCLLNNFYPREAKVQWKVDNALQSGNSQESVTEQDSKDSTYSLSSTLTLSKADYEKHKVYACEVTHQGLSSPVTKSFNRGEC
notes: Heterodimerized antibody, alteration in one H chain only; also called He Ab S239G
On to B1, for which the He/Con_2aH in the assay with FcγRIIa H was 97 % of control. In the assay with FcγRIIb, the He/Con_2b is 144 % of control.

B2: GpH7-A5/GpH7-B3 variant S267_08L/GpL16-k0 (antibody, human IgG1, kappa)
heavy 1: not shown
heavy 2: not shown
light: DIVMTQSPLSLPVTPGEPASISCQASESLVHSNRNTYLHWYLQKPGQSPQLLIYKVSNRFSGVPDRFSGSGSGTDFTLKISRVEAEDVGVYYCSQNTHVPPTFGQGTKVEIERTVAAPSVFIFPPSDEQLKSGTASVVCLLNNFYPREAKVQWKVDNALQSGNSQESVTEQDSKDSTYSLSSTLTLSKADYEKHKVYACEVTHQGLSSPVTKSFNRGEC
notes: Heterodimerized antibody, alteration in one H chain only; also called He Ab S267L
B2: the He/Con_2aH in the assay with FcγRIIa H is 29 % of control. Further, in the assay with FcγRIIb, the He/Con_2b was 109 % of control.

B3: GpH7-A5/GpH7-B3 variant S298_08L/GpL16-k0 (antibody, human IgG1, kappa)
heavy 1: not shown
heavy 2: not shown
light: DIVMTQSPLSLPVTPGEPASISCQASESLVHSNRNTYLHWYLQKPGQSPQLLIYKVSNRFSGVPDRFSGSGSGTDFTLKISRVEAEDVGVYYCSQNTHVPPTFGQGTKVEIERTVAAPSVFIFPPSDEQLKSGTASVVCLLNNFYPREAKVQWKVDNALQSGNSQESVTEQDSKDSTYSLSSTLTLSKADYEKHKVYACEVTHQGLSSPVTKSFNRGEC
notes: Heterodimerized antibody, alteration in one H chain only; also called He Ab S298L
With B3, in the assay with FcγRIIa H, the He/Con_2aH is 85 % of control. In addition, the He/Con_2b with FcγRIIb was 108 % of control.

B4: GpH7-A5/GpH7-B3 variant S239_07I/GpL16-k0 (antibody, human IgG1, kappa)
heavy 1: not shown
heavy 2: not shown
light: DIVMTQSPLSLPVTPGEPASISCQASESLVHSNRNTYLHWYLQKPGQSPQLLIYKVSNRFSGVPDRFSGSGSGTDFTLKISRVEAEDVGVYYCSQNTHVPPTFGQGTKVEIERTVAAPSVFIFPPSDEQLKSGTASVVCLLNNFYPREAKVQWKVDNALQSGNSQESVTEQDSKDSTYSLSSTLTLSKADYEKHKVYACEVTHQGLSSPVTKSFNRGEC
notes: Heterodimerized antibody, alteration in one H chain only; also called He Ab S239I
For the molecule B4, the He/Con_2aH in the assay with FcγRIIa H is 91.5 % of control. The He/Con_2b with FcγRIIb was 107 % of control.

B5: GpH7-A5/GpH7-B3 variant V266_06M/GpL16-k0 (antibody, human IgG1, kappa)
heavy 1: not shown
heavy 2: not shown
light: DIVMTQSPLSLPVTPGEPASISCQASESLVHSNRNTYLHWYLQKPGQSPQLLIYKVSNRFSGVPDRFSGSGSGTDFTLKISRVEAEDVGVYYCSQNTHVPPTFGQGTKVEIERTVAAPSVFIFPPSDEQLKSGTASVVCLLNNFYPREAKVQWKVDNALQSGNSQESVTEQDSKDSTYSLSSTLTLSKADYEKHKVYACEVTHQGLSSPVTKSFNRGEC
notes: Heterodimerized antibody, alteration in one H chain only; also called He Ab V266M
For B5, the He/Con_2aH with FcγRIIa H is 83.9 % of control. In the assay with FcγRIIb, the He/Con_2b was 251 % of control.

B6: GpH7-A5/GpH7-B3 variant S239_18N/GpL16-k0 (antibody, human IgG1, kappa)
heavy 1: not shown
heavy 2: not shown
light: DIVMTQSPLSLPVTPGEPASISCQASESLVHSNRNTYLHWYLQKPGQSPQLLIYKVSNRFSGVPDRFSGSGSGTDFTLKISRVEAEDVGVYYCSQNTHVPPTFGQGTKVEIERTVAAPSVFIFPPSDEQLKSGTASVVCLLNNFYPREAKVQWKVDNALQSGNSQESVTEQDSKDSTYSLSSTLTLSKADYEKHKVYACEVTHQGLSSPVTKSFNRGEC
notes: Heterodimerized antibody, alteration in one H chain only; also called He Ab S239N
In the case of B6, the He/Con_2aH with FcγRIIa H was 94.2 % of control. In the assay with FcγRIIb, the He/Con_2b was 119 % of control.

B7: GpH7-A5/GpH7-B3 variant S267_03V/GpL16-k0 (antibody, human IgG1, kappa)
heavy 1: not shown
heavy 2: not shown
light: DIVMTQSPLSLPVTPGEPASISCQASESLVHSNRNTYLHWYLQKPGQSPQLLIYKVSNRFSGVPDRFSGSGSGTDFTLKISRVEAEDVGVYYCSQNTHVPPTFGQGTKVEIERTVAAPSVFIFPPSDEQLKSGTASVVCLLNNFYPREAKVQWKVDNALQSGNSQESVTEQDSKDSTYSLSSTLTLSKADYEKHKVYACEVTHQGLSSPVTKSFNRGEC
notes: Heterodimerized antibody, alteration in one H chain only; also called He Ab S267V
Turning to B7, in the assay with FcγRIIa H, the He/Con_2aH was 50.8 % of control. In addition, the He/Con_2b with FcγRIIb was 192 % of control.

B8: GpH7-A5/GpH7-B3 variant S267_01G/GpL16-k0 (antibody, human IgG1, kappa)
heavy 1: not shown
heavy 2: not shown
light: DIVMTQSPLSLPVTPGEPASISCQASESLVHSNRNTYLHWYLQKPGQSPQLLIYKVSNRFSGVPDRFSGSGSGTDFTLKISRVEAEDVGVYYCSQNTHVPPTFGQGTKVEIERTVAAPSVFIFPPSDEQLKSGTASVVCLLNNFYPREAKVQWKVDNALQSGNSQESVTEQDSKDSTYSLSSTLTLSKADYEKHKVYACEVTHQGLSSPVTKSFNRGEC
notes: Heterodimerized antibody, alteration in one H chain only; also called He Ab S267G
Regarding B8, the He/Con_2aH with FcγRIIa H is 71.3 % of control. Further, the He/Con_2b with FcγRIIb was 105 % of control.

B9: GpH7-A5/GpH7-B3 variant S267_07I/GpL16-k0 (antibody, human IgG1, kappa)
heavy 1: not shown
heavy 2: not shown
light: DIVMTQSPLSLPVTPGEPASISCQASESLVHSNRNTYLHWYLQKPGQSPQLLIYKVSNRFSGVPDRFSGSGSGTDFTLKISRVEAEDVGVYYCSQNTHVPPTFGQGTKVEIERTVAAPSVFIFPPSDEQLKSGTASVVCLLNNFYPREAKVQWKVDNALQSGNSQESVTEQDSKDSTYSLSSTLTLSKADYEKHKVYACEVTHQGLSSPVTKSFNRGEC
notes: Heterodimerized antibody, alteration in one H chain only; also called He Ab S267I
As to B9, the He/Con_2aH with FcγRIIa H was 34.7 % of control. The He/Con_2b with FcγRIIb is 192 % of control.

Values taken from patent publication US20150344570A1 (published 2015).
